The values below come from paper PMC5745793 (2017).

Read-outs that look alike come from different tables or passages of the source.

In test [1] the target is CCR3 (Homo sapiens) (UniProt P51677). To be noted: cited from earlier work.
The target is the same in test [2]. The note with it: cited from earlier work. The source holds these as a separate data set.
For a further test, the target named is T1, CCR3 (Homo sapiens, UniProt P51677).
T1 chain: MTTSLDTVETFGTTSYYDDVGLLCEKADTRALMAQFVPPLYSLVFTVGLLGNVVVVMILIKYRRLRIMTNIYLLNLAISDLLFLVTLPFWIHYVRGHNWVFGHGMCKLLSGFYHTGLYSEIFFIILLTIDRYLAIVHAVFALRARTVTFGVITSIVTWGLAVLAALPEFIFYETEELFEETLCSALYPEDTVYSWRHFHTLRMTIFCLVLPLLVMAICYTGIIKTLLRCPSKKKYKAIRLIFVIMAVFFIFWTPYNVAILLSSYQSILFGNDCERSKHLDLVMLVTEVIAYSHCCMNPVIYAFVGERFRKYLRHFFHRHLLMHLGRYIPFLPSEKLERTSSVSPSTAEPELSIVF
Kind of test: QCM.

What is called Kd is the constant that tells how readily two partners part at equilibrium. For the molecule CCL11 (from UniProt P51671), in the test with CCR3 (Homo sapiens) [1], the Kd is 370 nM.

Consider CCL24 (from UniProt O00175), for which, in the test with CCR3 (Homo sapiens) [2], the Kd was 300 nM.

B1: CCL8 (protein)
chain: QPDSVSIPITCCFNVINRKIPIQRLESYTRITNIQCPKEAVIFKTKRGKEVCADPKERWVRDSMKHLDQIFQNLKP
B1 had a Kd in the test with CCR3 of 120 nM.
